Test: soluble on expression in E. coli; label from the status in PepcDB or PDB records

Soluble on expression in E. coli, not soluble:
MGSDKIHHHHHHMDRLQLLEYWLKALYPDQPCTLSPASADASFRRYFRASLPGKTLIVMDAPPQQEDCRPFLHAASIFSRASVHVPAIVAQDLNQGFLLLSDLGTTTYLQALTAAPENANRLYQDAIDALIKIQCASQKNIFPEYDRILLSRELELFPDWYMTRHLHAPPDDDQKNTLKTVFNLILANNLAQPQVFVHRDYHSRNLMVSTPNPGIIDFQDAVLGPITYDLVSLFKDAYIQWEEAQILDWMIRYWEKARHAGLPVATDFSIFYRDFEWMGVQRHLKVLGIFARLCYRDNKPTYLQDMPAIMQYLRQTCERYSELHPLSRLLDRLEDRQAETGYTF, METGMVTVVNSNNFDVPRIYPPSSKSTSIHLTGFPTFYSKDHEYLLPVNLWFNYLVNIRKAVDITASVRALKRYWQFLETNNYSWDNFPANDYLKPTYRFRNDDLLKAARSGEIAFSTASMYILHVIKFYEWAAHERFITFTEENKPFNYQIVHIANSGMMSHNNPRFTVRSTDLRIRKPARNEQQKLNPLSQQELLFFADCLKECSDEFIIHQLLQIQSGLRVEEACTFPFSIVEMPNPHIHRYEVEIGIHNGVHTKFNKTRKVEIPNQLMRKMYDYSVSERRLKREKKTDGVNKTLLLNNLGNPLCSNNIQQHFRRLRHHIQNKHNIVFSHRTHDLRATYGTYRLDSLLDHLPVGDALALIMGWMGHKDDKTTWKYLRYLRKEKANQNAIVMLDQILEEAML, MAHHHHHHMTVAKKCMVVLQHGSHGTHLDLACLSQYLKAKDPRLIVWESYKNEGMRTDDGVVPCGERLADNLIREIKELCSTPTQSGGDGGREKVVVQMSFVCHSMGGLIVREALPRVWDKVESQKGKLEIEWNMFCTIATPHGGVCQMASTLRYYLGRLISFFYSTSYHDMFLGSDVLTDRLLSPKHLSCLAAFKRRLLVSSINDILVPLMSSGFMLTPSQRGLPGDMLREEQKQLCAFNEREMYDKMRTITEIPKEEWPANKFLAERRIAKTLVQAVGNFDSVVVDLRSPRLEELYEDRKRRTTAWYGANKRSHQAMVCKPPFDTVEEAFGFVSHMVGDEVLATFQE, MRPFILLALLVSVTVAFNIFRDEVVPEEQLLAVRRTTRDASDSSSDSDEKDDAKTTVTVSFGLSGSQAWPIFQFFSFALKTKKKSKFFRRSGYELRPRP, MSFTTKVKEELIHLSTGDNNELAAIIKLSGSLGLAHQSLHLSITTENAKIARYIYSLIEDAYVIVPEIRYHQKTNLRKNRVYTVYVEQGVETILADLKLADSFFGLETGIEPQVLSDDNAGRSYLKGAFLAAGSIRDPESGKYQLEIYSVYLDHAQDLAQLMQKFMLDAKTIEHKSGAVTYLQKAEDIMDFLIIIGAMSCKEDFEAIKLLREARNDINRANNAETANIAKTISASMKTINNIIKIMDTIGLESLPIELQQVAQLRVKHPDYSIQQVADALEFPITKSGVNHRLRKINKIADDL, MGSDKIHHHHHHMKIAVVGLGNIGFNLFSYINKKYPNSVVGVDIDAGRVNDLRSQGYRVTTDYRALTGIDIWLLAPSTGDQGENLFAALGEMIICPGALISIESTLPPGTMELVRKYLEGKGYRCGQDVYLIHVPHRVMFGVDETVCDTPRVMGAFTQACRDKGRQFYEPLVPQLVEVEDVRIAELSKVVENVKRYVDVAFAQELYQYCKDQGMDFAELRKAVNSKSNVELLGTDWGIGGECLPKDMRFLRKVCPSPLLEGAAIADQEYRDRILQQVGTHQNVLIKGLSYKAGVKDLKHSRGVDLVRALEEAGNTVWVVDPLFTPEELEAAGFKTVEKFDEADLQGWIVLEREKALK, MAHHHHHHMFRSEAHFRMLANLRFLELQKLLLNRFQIFKNEEITVLKKGSMKTILYEWAEFLTKEQRATNMTHIPDEVLQSKRVADILRDDVECRWLVGRINVGAVSGVSGVSPPSPLSGAHLARDDAALSKVDQLHLDEYPDLFHYEYPQFPYDYYDKKKMSNFYSLMKFPYNDILNISKRIKREVSPPGGDAKEGEMRQMEEPRGGALESAGVDVVDDDFVSYSSNSYVYAPSEMETSKENYHE, MAINPFFTLVQRPVQSIEMAPPKPSAKGAKKAAKTVTKPKDGKKRRHARKESYSVYIYRVLKQVHPDTGVSSKAMSIMNSFVNDVFERIAAEASRLAHYNKRSTISSREIQTAVRLILPGELAKHAVSEGTKAVTKYTSSK, MGSDKIHHHHHHMMKRVLIKPLEPLMFRSQGEFEPLITGSHTAAQSLIIPRPSTIAGMLGYILFNKSSGTGDWLSDLTNLLDTIYGTFIETNGEYLFPLRMGNHLALVDQQHLINLPILLEKEYEQREKGIYELFYDKNKLFQIINHQDRIGISIDKSTRTVKEHYLYSARYLAFKKEVNYVIFIDNDAISDKINGKIVNFGGENRIAKLEVDDYKVDTSIEEEYYLTLSPILIPDEALDDLLDNISDYVTMGKVDKISLGFDIANTKRKEMLTAILEGSIVKRSIIDFIKKEINNNLLDRFTKYEKIGYNTLMNLCKLAFRKILS, MENKSIAIFIDAENIPAKYAKSIFDIASDYGEVIIKRIYGDWTQKNIQGWREQIAEYSLIAMQQFNFAANKNSSDMYLITEIMSIFYEKNIDIFVIVSSDSDYTSLIQKLRENKKQVIGMGLEKSIKSYVNAFSEFFYLDKDESKKEDILSKDYLRALINITEQLIDEKGRAEYAQIRTNMNRKYSDFHPQNYGFKNFRALIQKFLPKMKKFEEEREKNIYFLVKKDYESYYLEHHHHHH, ESLSGEDAFPYRHQIVEIPPIELIVIEHRLHQLTCGQCGTNTRAKLPDDVNPSEYGVRVVAMVALLSGVYRNSQRMVQSALADLFGISMSLGTVNTLRIEANNAVANCVDEAKLYVQHSNVVGADETGFNQGNIDGGNPKQRQAWLWVGVTPLVTFFEVALTRCTSAVKNLLGENFAGILTSDRHGAYNWVDI, MATVGGAFKDSLTQAQKDELHQIALKIVQDGKGILAADESTGTIGKRLDAINLENNETNRQKYRQLLFTTPNLNQHISGVILYEETFHQSTDKGEKFTDLLIKQGIVPGIKLDLGVVPLAGTIGEGTTQGLDKLAERAAAFKKGGCGFAKWRCVLNIGTHTPSHLGMLENANVLARYASICQANGLVPIVEPEVLCDGEHDLARAQKVTEQVLAFVYKALADHHVYLEGTLLKPNMVTPGQSSASKASHEAIGLATVTALRRGVPAAVPGITFLSGGQSELDATANLNAINSVQLGKPWKLTFSYGRALQASVLKAWGGKDENIAAAQKTLLHRSKANGDASLGKYAGEDAAGAAAESLFVAKHSY

Soluble on expression in E. coli, soluble:
MEEAEKPLQVAAVDSSVPRTAELAGITTLDDPLGHMPERFDAFICYCPSDIQFVQEMIRQLEQTNYRLKLCVSDRDVLPGTCVWSIASELIEKRCRRMVVVVSDDYLQSKECDFQTKFALSLSPGAHQKRLIPIKYKAMKKEFPSILRFITVCDYTNPCTKSWFWTRLAKALSLPLEHHHHHH, GPGSMPATEMQSMEMDTVQSMYDSYELISVDPPTYSVLLTATADDPPELRVTIVYDSEGYPETAAPTVRLEHIAKHRRMQTAALAKEIEDLCAEQIGMHSVISVLQKAQEYLTDYAAMEEKAELQRRGDALTKAAASVSTAAPDPTVRIGTAVTRELFAEWSEKHIAEKLQKRVLSEKKSTKLTGRQLWDGTLKNADWDLFEALEDEQDVDLYTLANGEGEEADEVEYDLDDPAEEG, SKIFSKCELARKLKSMGMDGFHGYSLANWVCMAEYESNFNTQAFNGRNSNGSSDYGIFQLNSKWWCKSNSHSSANACNIMCSKFLDDNIDDDIACAKRVVKDPNGMSAWVAWVKHCKGKDLSKYLASCNL, GPPGPPGPPGPPGPRGRTGPPGPPGPPGPP, MSLGNPTSINPGGSSTTTGMAFNEENGFQVSDYAGQPEGPNLVYIEGGRTVLGSFEEDLMKNGDNVERTVTVASFYMDETEIANIHWLEYLFYVQRDSSQEFYESALPDTTVWASELAYNDPYVDHYFRYPGFRYFPVVGVNWIQANDYCIWRTTVVNNQLAQNAGIDVPEGGGRIPLESGVVLPNYRLPSEAEWEYAAQALIGNQWLDENQTHKRLYPWDGHALRNPYGKQMGMFLANFKRGRGDYAGIAGKLNDGAMITTYIYEFPPNDFGLYCMAGNVNEWVYDVYRPLSFQTFDDLNPLRRNGFLDEEKGYDKAGFQSLVDDHVRVYKGGSWKDVAYWMSPGTRRYLAEDSCTATIGFRCAMIQAGTEGHHHHHH, MMKKFIAPLLALLVSGCQIDPYTHAPTLTSTDWYDVGMEDAISGSAIKDDDAFSDSQADRGLYLKGYAEGQKKTCQTDFTYARGLSGKSFPASCNNVENASQLHEVWQKGADENASTIRLN, MSFHVRFTLEAKADIERLYRFLAEHDFDVAERTLETIDSAWSLLEQFPFSCRKIDDANPFLREFIISFGNSGYVVLFEIEDSNTVTVLAVRHQLEDDYY, MVNDLTPHFEDVQAHYDLSDDFFRLFLDPTQTYSCAHFEREDMTLEEAQIAKIDLALGKLGLQPGMTLLDIGCGWGATMRRAIAQYDVNVVGLTLSKNQAAHVQKSFDEMDTPRDRRVLLAGWEQFNEPVDRIVSIGAFEHFGHDRHADFFARAHKILPPDGVLLLHTITGLTRQQMVDHGLPLTLWLARFLKFIATEIFPGGQPPTIEMVEEQSAKTGFTLTRRQSLQPHYARTLDLWAEALQEHKSEAIAIQSEEVYERYMKYLTGCAKLFRVGYIDVNQFTLAK, MGSSHHHHHHSSGLVPRGSHMHVQAKFSNNLNIFEYSIVIRKIFYLGPPGSFSQEAAEIFGSDLVPVRSISEIFHKISVTGDYGIVPIENSIEGPVNETLDGLFRHEDIYIVDHVEIPIEIFLASNCDTENIRRIYSHPHAIAEAGDYLERTENIEVIRTSSTSEAAKLASMDEAGAALCSMKAAQHYGLANTVKIESKSRNITRFILIGRERNVEGSRHIILCVIPDRPGSLHSLIGVLASRGINMNMIYSRPLRDTIWKYYFYIEFSGKLDEDLLLTMGKQSLRILYKGSFKCCR, MSLKATYSMLSQVTFPLAEAGYYVVPVALADETFRQNGLTSAGDVHQVSPAKLREIYGADAALYVTVSDYGTRYMVISSATIVTASAKLVDLRSGTTLWTGSATASSEEGNGGNNGGLVGMLITAAVKQIINSSVEDAGYPIAGMTSARLLSAGQPGGLLYGPRSPRYGSDEGHHHHHH, MPYEMKFKGVYVLAMEDNSSFKGKIEVGDTVTGVDGKSFKSSEELMNYIKAQKVNQKVTVQFIQDGKAKEATGKLIELPTDKKAGIGIGLTDHTLEHHHHHH, MESKAKTTVTFHSGILTIGGTVIEVAYKDAHIFFDFGTEFRPELDLPDDHIETLINNRLVPELKDLYDPRLGYEYHGAEDKDYQHTAVFLSHAHLDHSRMINYLDPAVPLYTLKETKMILNSLNRKGDFLIPSPFEEKNFTREMIGLNKNDVIKVGEISVEIVPVDHDAYGASALLIRTPDHFITYTGDLRLHGHNREETLAFCEKAKHTELLMMEGVSISFPEREPDPAQIAVVSEEDLVQHLVRLELENPNRQITFNGYPANVERFAKIIEKSPRTVVLEANMAALLLEVFGIEVRYYYAESGKIPELNPALEIPYDTLLKDKTDYLWQVVNQFDNLQEGSLYIHSDAQPLGDFDPQYRVFLDLLAKKDITFVRLACSGHAIPEDLDKIIALIEPQVLVPIHTLKPEKLENPYGERILPERGEQIVL
